Test results published in patent US20260184782A1 (TWIST BIOSCIENCE, published 2026).
Like-named read-outs stand apart in the source and are kept apart here.

T1: TIGIT (UniProt Q495A1 22-141, limits assumed)
T1 construct: also called T cell immunoreceptor with Ig and ITIM domains; hTIGIT
T1 sequence (looked up): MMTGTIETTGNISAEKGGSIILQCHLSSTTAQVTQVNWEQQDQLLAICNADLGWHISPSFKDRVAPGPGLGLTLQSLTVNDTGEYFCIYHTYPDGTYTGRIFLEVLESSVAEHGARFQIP


Experiments:
[1] = target: T1, TIGIT; experiment: TIGIT:CD155 blockade assay, competitor CD155
[2] = target: T1, TIGIT; experiment: SPR (Carterra)
[3] = target: T1, TIGIT; experiment: ELISA; parameters: unit not given here
[4] = target: T1, TIGIT; experiment: SPR (Carterra); remark: listed apart in the source

| Binder | IC50 [1] [nM] | Kd [2] [nM] | RU [2] [RU] | koff [2] [s⁻¹] | kon [2] [M⁻¹ s⁻¹] | ELISA [3] | Kd [4] [nM] | koff [4] [s⁻¹] | kon [4] [M⁻¹ s⁻¹] |
| --- | --- | --- | --- | --- | --- | --- | --- | --- | --- |
| TIGIT-211-40 (antibody, V domains shown) VH: EVQLLESGGGLVQPGGSLRLSCAASGFTFSRYAMNWVRQAPGKGLEWVSEISPSGKKKYYADSVKGRFTISRDNSKNTLYLQMNSLRAEDTAVYYCAKSSFDKYNFDYWGQGTLVTVSS VL: DIQMTQSPSSLSASVGDRVTITCRASQDIGNFLNWYQQKPGKAPKLLIYRTSWLQSGVPSRFSGSGSGTDFTLTISSLQPEDFATYYCQQRSSYPPTFGQGTKVEIK |  |  |  |  |  | 10.2 | 392 | 0.0405 | 103000 |
| TIGIT-211-18 (antibody, V domains shown) VH: EVQLLESGGGLVQPGGSLRLSCAASGFTFGTIPMSWVRQAPGKGLEWVGVIWGGGGTYYADSVKGRFTISRDNSKNTLYLQMNSLRAEDTAVYYCAKAHGNPVSDLSFDYWGQGTLVTVSS VL: DIQMTQSPSSLSASVGDRVTITCSGDKLGDKYTSWYQQKPGKAPKLLIYHTSRLQDGVPSRFSGSGSGTDFTLTISSLQPEDFATYYCQQSYNLPLTFGQGTKVEIK |  |  |  |  |  | 9.7 | 268 | 0.000832 | 3110 |
| TIGIT-211-30 (antibody, V domains shown) VH: EVQLLESGGGLVQPGGSLRLSCAASGFTFKSYGMHWVRQAPGKGLEWVSAISGSGGGTSYADSVKGRFTISRDNSKNTLYLQMNSLRAEDTAVYYCARAGQWLGDFDYWGQGTLVTVSS VL: DIQMTQSPSSLSASVGDRVTITCRASQPIGPDLLWYQQKPGKAPKLLIYRKSNRPSGVPSRFSGSGSGTDFTLTISSLQPEDFATYYCQQSYSTPYTFGQGTKVEIK |  |  |  |  |  | 8 | 2230 | 0.0681 | 30500 |
| TIGIT-471-001 (antibody, V domains shown, Variable domains only) VH: EVQLLESGGGLVQPGGSLRLSCAASGFTFSNYGVSWVRQAPGKGLEWVGYINPSRGYTYYADSVKGRFTISRDNSKNTLYLQMNSLRAEDTAVYYCARSYGGGFDYWGQGTLVTVSS VL: DIQMTQSPSSLSASVGDRVTITCRASQTIERRLNWYQQKPGKAPKLLIYDASSLHTGVPSRFSGSGSGTDFTLTISSLQPEDFATYYCQQSYIIPPTFGQGTKVEIK | 9.6 | 61.3 | 175 | 0.022 | 359000 |  |  |  |  |
| TIGIT-211-45 (antibody, V domains shown) VH: EVQLLESGGGLVQPGGSLRLSCAASGFTFRRYVMGWVRQAPGKGLEWVSEISPSGGYTYYADSVKGRFTISRDNSKNTLYLQMNSLRAEDTAVYYCAKRWTFNTAFDYWGQGTLVTVSS VL: DIQMTQSPSSLSASVGDRVTITCRASQSIRRYLNWYQQKPGKAPKLLIYDASNLQSGVPSRFSGSGSGTDFTLTISSLQPEDFATYYCQQSYDFPRTFGQGTKVEIK |  |  |  |  |  | 8.8 | 105 | 0.00125 | 11900 |
| TIGIT-211-28 (antibody, V domains shown) VH: EVQLLESGGGLVQPGGSLRLSCAASGFTFSTYAMSWVRQAPGKGLEWVSEISPSGGYTYYADSVKGRFTISRDNSKNTLYLQMNSLRAEDTAVYYCAKVKLGGGPNFDYWGQGTLVTVSS VL: DIQMTQSPSSLSASVGDRVTITCQGASLRNYYASWYQQKPGKAPKLLIYDTSKVASGVPSRFSGSGSGTDFTLTISSLQPEDFATYYCFQGSHIPYTFGQGTKVEIK |  |  |  |  |  | 7.2 | 63.1 | 0.0016 | 25400 |
| TIGIT-211-43 (antibody, V domains shown) VH: EVQLLESGGGLVQPGGSLRLSCAASGFTFYDYTMDWVRQAPGKGLEWVSAISGSGGGTSYADSVKGRFTISRDNSKNTLYLQMNSLRAEDTAVYYCARRHWPGGFDYWGQGTLVTVSS VL: DIQMTQSPSSLSASVGDRVTITCRASQSIRRYLNWYQQKPGKAPKLLIYWASDRESGVPSRFSGSGSGTDFTLTISSLQPEDFATYYCQQSFSTPLTFGQGTKVEIK |  |  |  |  |  | 12 | 819 | 0.00117 | 1430 |
| TIGIT-211-42 (antibody, V domains shown) VH: EVQLLESGGGLVQPGGSLRLSCAASGFTFNHYGMGWVRQAPGKGLEWVSYISSSGSSTYYADSVKGRFTISRDNSKNTLYLQMNSLRAEDTAVYYCAKGWLGNFDYWGQGTLVTVSS VL: DIQMTQSPSSLSASVGDRVTITCRASQGVRTSLAWYQQKPGKAPKLLIYGKNIRPSGVPSRFSGSGSGTDFTLTISSLQPEDFATYYCQQSYSFPLTFGQGTKVEIK |  |  |  |  |  | 8 | 66.1 | 0.000643 | 9740 |
| TIGIT-211-35 (antibody, V domains shown) VH: EVQLLESGGGLVQPGGSLRLSCAASGFTFNAYPMTWVRQAPGKGLEWVSAITGSGGSTYYADSVKGRFTISRDNSKNTLYLQMNSLRAEDTAVYYCARDGSYSSSWYGYWGQGTLVTVSS VL: DIQMTQSPSSLSASVGDRVTITCSGNKLGDKYASWYQQKPGKAPKLLIYRTSWLQSGVPSRFSGSGSGTDFTLTISSLQPEDFATYYCVARAVRGNPHVLFGQGTKVEIK |  |  |  |  |  | 8.8 | 605 | 0.0406 | 67100 |

The next lines start with the values.

| IC50 [1] [nM] | Kd [2] [nM] | RU [2] [RU] | koff [2] [s⁻¹] | kon [2] [M⁻¹ s⁻¹] | ELISA [3] | Kd [4] [nM] | koff [4] [s⁻¹] | kon [4] [M⁻¹ s⁻¹] | Binder |
| --- | --- | --- | --- | --- | --- | --- | --- | --- | --- |
| 14.4 | 7290 | 1080 | 0.269 | 36900 |  |  |  |  | TIGIT-471-011 (antibody, V domains shown, Variable domains only) VH: EVQLLESGGGLVQPGGSLRLSCAASGFTFSNYGVSWVRQAPGKGLEWVSSIDWHGWVTYYADSVKGRFTISRDNSKNTLYLQMNSLRAEDTAVYYCVKNALRFDYWGQGTLVTVSS VL: DIQMTQSPSSLSASVGDRVTITCSASQDINKYLNWYQQKPGKAPKLLIYHTSRLQSGVPSRFSGSGSGTDFTLTISSLQPEDFATYYCQQVVWRPFTFGQGTKVEIK |
| 13.5 | 60 | 57.5 | 0.00926 | 154000 |  |  |  |  | TIGIT-471-027 (antibody, V domains shown, Variable domains only) VH: EVQLLESGGGLVQPGGSLRLSCAASGFTFSNYGVSWVRQAPGKGLEWVSWISPHGALTYYADSVKGRFTISRDNSKNTLYLQMNSLKAEDTAVYYCAKGRRRFDYWGQGTLVTVSS VL: DIQMTQSPSSLSASVGDRVTITCRASQTISSYLNWYQQKPGKAPKLLIYENNNRPSGVPSRFSGSGSGTDFTLTISSLQPEDFATYYCQQSYIIPPTFGQGTNVEIK |
|  |  |  |  |  | 12.4 | 3400 | 0.105 | 30800 | TIGIT-211-57 (antibody, V domains shown) VH: EVQLLESGGGLVQPGGSLRLSCAASGLTFPNYGMGWVRQAPGKGLEWVSAISREGRATYYADSVKGRFTISRDNSKNTLYLQMNSLRAEDTAVYYCARVIAAAGAFDYWGQGTLVTVSS VL: DIQMTQSPSSLSASVGDRVTITCRSSQSLVHSTGNTYLHWYQQKPGKAPKLLIYGKNIRPSGVPSRFSGSGSGTDFTLTISSLQPEDFATYYCQQSYTTPWTFGQGTKVEIK |
| 3.2 | 395 | 93.7 | 0.0484 | 123000 |  |  |  |  | TIGIT-471-035 (antibody, V domains shown, Variable domains only) VH: EVQLLESGGGLVQPGGSLRLSCAASGFTFNAYPMTWVRQAPGKGLEWVSAITGSGGSTYYADSVKGRFTISRDNSKNTLYLQMNSLRAEDTAVYYCARVWRNHLDYWGQGTLVTVSS VL: DIQMTQSPSSLSASVGDRVTITCSGDKLGHTYTSWYQQKPGKAPKLLIYRASTLASGVPSRFSGSGSGTDFTLTISSLQPEDFATYYCQQGYTLPWTFGQGTKVEIK |
|  |  |  |  |  | 10.7 | 96.5 | 0.0335 | 347000 | TIGIT-211-51 (antibody, V domains shown) VH: EVQLLESGGGLVQPGGSLRLSCAASGFTFHKYGMAWVRQAPGKGLEWVSTISSGGGYTYYPDSVKGRFTISRDNSKNTLYLQMNSLRAEDTAVYYCARDTYLHFDYWGQGTLVTVSS VL: DIQMTQSPSSLSASVGDRVTITCRASQGVRTSLAWYQQKPGKAPKLLIYAKNNRPSGVPSRFSGSGSGTDFTLTISSLQPEDFATYYCQQSYSAPYTFGQGTKVEIK |
| 13.6 | 164 | 156 | 0.0565 | 344000 |  |  |  |  | TIGIT-471-019 (antibody, V domains shown, Variable domains only) VH: EVQLLESGGGLVQPGGSLRLSCAASGFTFSNYGVSWVRQAHGKGLEWVVYINPSRGYTYYADSVKGRFSISRDNSKNTLYLQMNSLRAEDTAVYYCARSYGGGFDYWGQGTLVTVSS VL: DIQMTQSPSSLSASVGDRVTITCRASQTIERRLNWYQQKPGKAPKLLIYDASSLHTGVPSRFSGSGSGTDFTLTISSLQPEDFATYYCQQSYIIPPTFGQGTKVEIK |
| 5.9 | 55.4 | 78 | 0.0122 | 221000 |  |  |  |  | TIGIT-471-038 (antibody, V domains shown, Variable domains only) VH: EVQLLESGGGLVQPGGSLRLSCAASGFTFSNYGVSWVRQAPGKGLEWVGYINPSRGYTYYADSVKGRFTISRDNSKNTLYLQMNSLRAEDTAVYYCARSYGGGFDYWGQGTLVTVSS VL: DIQMTQSPSSLSASVGDRVTITCRASQTIERRLNWYQQKPGKAPKLLIYDASSLHTGVSSRFSGSGSGTYFTLTISSLQAEDFATYYCQQSYIIPPTFGQGTKVEIK |
| 9.8 | 51.4 | 122 | 0.0192 | 373000 |  |  |  |  | TIGIT-471-048 (antibody, V domains shown, Variable domains only) VH: EVQLLESGGGLVQPGGSLRLSCAASGFTFSNYGVSWVRQAPGKGLEWVGYINPSRGYTYYADSVKGRFTISRDNSKNTLYLQMNSLRAEDTAVYYCARSYGGGFDYWGQGTLVTVSS VL: DIQMTQSPSSLSASVGDRVTITCGASQTIERRLNWYQQKPGKAPKLLIYDASSLHTGVPSRISGSGSGTDFTLTISSLQPEHFATYYCQQSYIIPPTFGQGTKVEIK |
|  |  |  |  |  | 7.9 | 3040 | 0.0622 | 20400 | TIGIT-211-69 (antibody, V domains shown) VH: EVQLLESGGGLVQPGGSLRLSCAASGFTFGNYRMTWVRQAPGKGLEWVGVIWGGGGTYYADSVKGRFTISRDNSKNTLYLQMNSLRAEDTAVYYCARIFSYALDYWGQGTLVTVSS VL: DIQMTQSPSSLSASVGDRVTITCRASQNIRSYLNWYQQKPGKAPKLLIYGASTLQSGVPSRFSGSGSGTDFTLTISSLQPEDFATYYCQQSYENPLTFGQGTKVEIK |
